Assay results: publication PMC8018021 (Proceedings of the National Academy of Sciences of the …, 2021)
Values joined by “and” are separate entries in the source; they are usually repeats but may differ in a detail not shown here. Identical values can stand only once.

Columns and labels:
PII–PirC complex [1] = biological target: T1, PII–PirC complex (Synechocystis sp. PCC 6803, UniProt Q55247); test: bio-layer interferometry, enhancement of PirC–PII binding; details: effector promotes PII–PirC complex
T1 sequence (Q55247 whole entry, one chain of several): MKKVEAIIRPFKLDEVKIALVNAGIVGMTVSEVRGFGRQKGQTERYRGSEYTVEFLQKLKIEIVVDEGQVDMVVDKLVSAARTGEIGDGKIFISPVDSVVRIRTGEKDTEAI

PGAM–PirC complex = biological target: T2, PGAM–PirC complex (Synechocystis sp. PCC 6803, UniProt P74507); test: bio-layer interferometry, inhibition of PirC–PGAM binding
T2 sequence (P74507 1-532): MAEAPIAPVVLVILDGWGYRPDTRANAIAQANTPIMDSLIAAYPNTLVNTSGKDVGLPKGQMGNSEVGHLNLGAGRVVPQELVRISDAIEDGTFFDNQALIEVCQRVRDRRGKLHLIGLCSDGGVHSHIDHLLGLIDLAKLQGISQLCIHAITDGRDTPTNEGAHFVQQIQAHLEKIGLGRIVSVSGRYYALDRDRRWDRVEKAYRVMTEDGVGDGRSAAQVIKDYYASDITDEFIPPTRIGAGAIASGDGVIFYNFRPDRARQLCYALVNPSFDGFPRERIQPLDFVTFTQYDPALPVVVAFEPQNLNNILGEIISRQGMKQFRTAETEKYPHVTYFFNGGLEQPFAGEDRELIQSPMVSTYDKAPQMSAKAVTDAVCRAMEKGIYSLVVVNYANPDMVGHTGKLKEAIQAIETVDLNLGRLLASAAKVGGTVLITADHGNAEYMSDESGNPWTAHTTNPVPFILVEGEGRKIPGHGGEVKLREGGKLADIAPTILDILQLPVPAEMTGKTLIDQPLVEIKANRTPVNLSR
T2 sequence (P77971 53-164 partner): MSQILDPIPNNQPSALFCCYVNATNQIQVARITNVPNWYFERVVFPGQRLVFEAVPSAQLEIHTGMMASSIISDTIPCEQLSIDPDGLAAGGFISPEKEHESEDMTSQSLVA

PII–PirC complex [2] = biological target: T1, PII–PirC complex; test: bio-layer interferometry, inhibition of PirC–PII binding
purified protein = substrate: O=C(O)[C@H](O)COP(=O)(O)O; test: purified protein; assay type: biochemical, Synechocystis sp. PCC 6803; details: no PirC, pH 8.0, 30 °C, 5 mM MgSO4, 0.4 mM MnCl2, 100 mM KCl
[3] = biological target: T3, PII signalling protein, C-terminal His8-tagged (Synechocystis sp. PCC 6803, UniProt Q55247 1-112); test: SPR
T3 sequence (Q55247 whole entry): as the sequence (Q55247 whole entry, one chain of several) above

[4] = biological target: T3, PII signalling protein, C-terminal …; test: BLI

## Nc1ncnc2c1ncn2[C@@H]1O[C@H](COP(=O)(O)OP(=O)(O)OP(=O)(O)O)[C@@H](O)[C@H]1O [ATP]
PII–PirC complex [1]; 2 mM ATP
  bio-layer interferometry, enhancement of PirC-PII binding: In the presence of ATP or ADP, PirC binding to PII strongly increased

## O=C(O)[C@@H](CO)OP(=O)(O)O [2-PGA]
PGAM–PirC complex
  IC50: 970 ± 1 µM

## O=C(O)CCC(=O)C(=O)O [2-OG]
PII–PirC complex [2]
  IC50: 123.4 ± 1.1 µM

## O=C(O)[C@H](O)COP(=O)(O)O [3-PGA]
PGAM–PirC complex
  IC50: 2400 ± 1 µM

## Nc1ncnc2c1ncn2[C@@H]1O[C@H](COP(=O)(O)OP(=O)(O)O)[C@@H](O)[C@H]1O [ADP]
PII–PirC complex [1]; 2 mM ADP
  bio-layer interferometry, enhancement of PirC-PII binding: In the presence of ATP or ADP, PirC binding to PII strongly increased

B1: PGAM (Synechocystis sp. PCC 6803 substr. Kazusa) (protein)
chain: T2 sequence (P74507 1-532)
Purified protein
  Km: 126.6 ± 6.4 µM
  Vmax: 2.85 µmol/min/mg
  kcat: 2.78 ± 0.03 s⁻¹
  kcat/Km: 22000 M⁻¹ s⁻¹

B2: PirC (PII-interacting regulator of carbon metabolism; product of sll0944), short 112-amino-acid variant, strep-tagged (natural protein)
chain: T2 sequence (P77971 53-164 partner)
[3]
  stoichiometry N: ~1 PirC monomer per PII trimer
[4]
  Kd: 0.0373 µM and 0.0141 µM
